B1: HSE oligonucleotide (dsDNA)
DNA 1: GCCTCGAATGTTCGCGAAGTTTCG
DNA 2: CGAAACTTCGCGAACATTCGAGGC

Columns and labels:
[1] = biological target: purified recombinant mouse HSF1 (heat shock transcription factor 1), released from GST-HSF1 by thrombin cleavage (mouse) (UniProt P38532); experiment: cell-based or functional assay
HSF1 = HSF1 (Mus musculus, UniProt P38532 P38532:1-525); experiment: EMSA; trimeric HSF1 activated by eEF1A plus HSR1 (BHK, HeLa or T3 sense transcript); about 5% of HSF1 activated; 1.5 mM MgCl2, 2 mM DTT; conditions: tags: expressed as N-terminal GST fusion from pGex-2T in E. coli, thrombin cleaved; chain copies: 3; label: 32P end
Experimental: cDNAs of HSR1 were cloned from both HeLa and BHK cells (see Methods), and the coding strand was identified in a functional assay (FIG. 5A). As shown in the upper panel of FIG. 5A, the sense (T3) and antisense (T7) HSR1s were transcribed in vitro by T3 and T7 RNA polymerases, respectively, from PCR fragments carrying T3 or T7 promoters on each side of HSR1. The resulting synthetic RNAs were tested in the minimal HSF1 activating system (FIG. 5A, lower panel). For the reconstitution experiment shown in FIG. 5A, recombinant mouse HSF1 was used along with eEF1A purified from rat liver (as described above). HSR1 isolated from heat-shocked BHK or HeLa cells (lanes 7, 8) and HSR1-T3 (lane 10) activated HSF when added together with purified eEF1A. However, neither component alone was capable of activating HSF1 (lanes 2-6). The slight stimulating effect of isolated eEF1A (lane 2) on HSF1 activation results from the residual amount of co-purified HSR1, and could be eliminated by RNAse A treatment. In FIG. 5A, quantitation of HSF1 activation is presented as the fold increase relative to a background control. Under these conditions, about 5% of the total HSF1 was activated.

purified recombinant mouse HSF1 (heat shock transcription factor 1), released from GST-HSF1 by thrombin cleavage (mouse), sequence (P38532 other isoform, or with tags, fused parts or gaps limits assumed): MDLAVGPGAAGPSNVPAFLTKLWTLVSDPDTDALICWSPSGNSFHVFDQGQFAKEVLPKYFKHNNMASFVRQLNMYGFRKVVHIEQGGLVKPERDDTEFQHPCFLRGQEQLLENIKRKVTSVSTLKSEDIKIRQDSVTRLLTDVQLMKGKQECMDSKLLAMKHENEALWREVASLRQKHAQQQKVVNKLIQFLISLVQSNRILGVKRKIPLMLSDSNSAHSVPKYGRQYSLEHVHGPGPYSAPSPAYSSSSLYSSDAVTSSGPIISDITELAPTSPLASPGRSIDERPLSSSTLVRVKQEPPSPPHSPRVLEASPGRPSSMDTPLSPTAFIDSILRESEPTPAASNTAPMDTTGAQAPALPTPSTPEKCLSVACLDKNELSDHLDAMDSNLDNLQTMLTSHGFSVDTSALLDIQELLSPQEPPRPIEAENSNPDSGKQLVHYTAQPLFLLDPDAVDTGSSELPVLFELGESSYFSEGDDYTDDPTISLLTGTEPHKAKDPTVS
HSF1, sequence (P38532 whole entry, the tested form may be a part, one chain of several): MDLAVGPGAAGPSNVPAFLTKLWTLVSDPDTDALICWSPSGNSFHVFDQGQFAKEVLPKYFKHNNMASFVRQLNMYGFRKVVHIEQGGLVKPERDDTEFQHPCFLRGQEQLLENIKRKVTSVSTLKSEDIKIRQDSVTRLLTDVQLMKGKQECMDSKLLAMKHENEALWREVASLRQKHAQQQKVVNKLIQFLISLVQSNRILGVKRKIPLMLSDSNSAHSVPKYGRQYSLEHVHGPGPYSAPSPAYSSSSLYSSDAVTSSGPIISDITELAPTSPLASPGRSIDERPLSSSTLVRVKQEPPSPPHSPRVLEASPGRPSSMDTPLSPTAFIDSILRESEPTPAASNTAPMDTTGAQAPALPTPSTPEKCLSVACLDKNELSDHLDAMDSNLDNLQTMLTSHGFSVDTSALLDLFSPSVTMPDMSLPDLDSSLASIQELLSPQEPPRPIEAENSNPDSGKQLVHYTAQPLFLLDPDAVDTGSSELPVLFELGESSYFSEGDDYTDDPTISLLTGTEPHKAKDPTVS

Molecule	HSF1 activation (DNA binding to HSE, EMSA) in the reconstituted system [1]	binding result (HSF1)
eEF1A purified from rat liver (from UniProt P62630 2-462)	5%	
B1		binds

Source: patent publication US20090188009A1, “HEAT SHOCK RNA FROM VARIOUS SPECIES AND ITS USE IN ACTIVATION OF HEAT SHOCK TRANSCRIPTION FACTOR, IN TREATMENT OF VARIOUS DISEASES IN ANIMALS AND IN GENERATION OF STRESS-RESISTANT PLANTS” (New York University, published 2009)
